Data from article PMC11546610, “Molecular Modeling and In Vitro Functional Analysis of the RGS12 PDZ Domain Variant Associated with High-Penetrance Familial Bipolar Disorder” (International Journal of Molecular Sciences, 2024).
Numbering of substitutions follows the chain as printed. Values belong to the molecule of their own block, whether it stands above or below them. *: point of attachment. Biotin = O=C1N[C@H]2[C@H](CS[C@H]2CCCCC(=O)*)N1; Ahx = NCCCCCC(=O)O

Legend:
[1] = biological target: T1, R59Q-variant RGS12 PDZ domain GST-fusion protein (Homo sapiens, UniProt O14924, R59Q); assay: SPR single-cycle kinetics (Alto), R59Q-variant PDZ domain; type: binding; settings: R59Q vs wildtype; peptide biosensors; N = 2-4
T1 construct: human RGS12 PDZ domain (aa 18–101 of UniProt O14924); purchased GenScript; host or cells: E. coli
T1 sequence (O14924 18-101 R59Q): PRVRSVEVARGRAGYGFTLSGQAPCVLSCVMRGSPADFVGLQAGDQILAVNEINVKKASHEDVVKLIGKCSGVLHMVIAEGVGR
Protocol: Wildtype and R59Q-variant versions of the human RGS12 PDZ domain (aa 18–101 of UniProt O14924) were each cloned in frame with an N-terminal glutathione-S-transferase (GST) expression tag, expressed by E. coli fermentation, and purified by GST-affinity column and size-exclusion column chromatographies by GenScript. These recombinant GST-fusion proteins were stored at −80 °C in a storage buffer (150 mM NaCl, 10 mM Tris-HCl pH 7.6, 1 mM EDTA, 5 mM DTT, and 10% glycerol) prior to thawing and supplementation with 0.1% (final) Tween 20 for use in the SPR experiments.
Biotinylated peptides were separately immobilized onto streptavidin-coated gold nanosensor particles (Nicoya) in lane pairs. The reference sensor of the lane held either immobilized mNotch1 or rβ2AR peptide as an established negative control surface, and the test sensor held one of the candidate PDZ domain-interacting peptides. All on-board dilutions and experimental passages of analytes over immobilized peptides were performed with a running buffer consisting of phosphate-buffered saline (137 mM NaCl, 2.7 mM KCl, 4.3 mM disodium phosphate, 1.4 mM monopotassium phosphate; and pH 7.3, from Teknova) supplemented with 0.1% Tween 20 (Nicoya), […] (w/v) bovine serum albumin (BSA; Nicoya), and 3% glycerol (the latter to reduce bulk-shift readings when transitioning from running buffer to protein analyte injections). […] Each sensor was regenerated between each single-stack passage by the injection of a surface regeneration buffer (10 mM NaOH). Non-specific binding to the paired, negative control peptide-bound streptavidin surface was subtracted from each single-stack curve and then binding parameters of the on-rate (ka), off-rate (kd), and dissociation constant (KD) were calculated using the 1:1 Langmuir kinetics model with mass transport limitation (Alto software version 2.3.1; Nicoya). Observed maximal response units (Rmax) and calculated KD values for each single-stack injection were plotted using GraphPad Prism 10.

[2] = biological target: T2, Wildtype human RGS12 PDZ domain GST-fusion protein (human, UniProt O14924 18-101); assay: SPR; Alto 8 × 2 digital microfluidics SPR (Nicoya); biotinylated peptides immobilised on streptavidin-coated gold nanosensors; GST-RGS12 PDZ fusion protein as analyte, single-cycle kinetics, 111 nM-9 μM; PBS pH 7.3 with 0.1% Tween 20, BSA, 3% glycerol; mNotch1 or rβ2AR reference sensor subtracted; 1:1 Langmuir model with mass transport limitation; apparent rates, estimated KD; settings: both partners purified
T2 construct: human RGS12 PDZ domain, aa 18-101 of UniProt O14924; also called GST-RGS12 PDZ domain fusion protein; wildtype PDZ protein; not shown: GST, N-terminal, kept
T2 sequence (looked up): T1 sequence (O14924 18-101 R59Q) with Q42R

[3] = biological target: T3, R59Q-variant human RGS12 PDZ domain GST-fusion protein (human, UniProt O14924 18-101, R59Q); assay: SPR
T3 sequence: T1 sequence (O14924 18-101 R59Q)

[4] = biological target: T4, Wildtype human RGS12 PDZ domain GST-fusion protein (human, UniProt O14924 18-101); assay: SPR
T4 chain: T1 sequence (O14924 18-101 R59Q) with Q42R

[5] = biological target: T3, R59Q-variant human RGS12 PDZ domain …; assay: SPR; remark: listed apart in the source
[6] = biological target: T4, Wildtype human RGS12 PDZ domain …; assay: SPR

Molecule: biotin-Ahx-RTLRLKQPSTPTRTAV-carboxylic acid [TRTAV-COOH of MEK2]
- KD of R59Q variant relative to wildtype (fold less than the wildtype) [1]: at least 2 fold
- maximal binding signal (Rmax), R59Q in comparison to wildtype [1]: less maximal binding signal (Rmax)

B2: SAPAP3 C-terminal peptide, biotin-Ahx-IYIPEAQTRL-carboxylic acid (peptide)
peptide: {Biotin-Ahx}-IYIPEAQTRL-OH
SMILES: CC[C@H](C)[C@H](NC(=O)CCCCCNC(=O)CCCC[C@@H]1SC[C@@H]2NC(=O)N[C@@H]21)C(=O)N[C@@H](Cc1ccc(O)cc1)C(=O)N[C@H](C(=O)N1CCC[C@H]1C(=O)N[C@@H](CCC(=O)O)C(=O)N[C@@H](C)C(=O)N[C@@H](CCC(N)=O)C(=O)N[C@H](C(=O)N[C@@H](CCCNC(=N)N)C(=O)N[C@@H](CC(C)C)C(=O)O)[C@@H](C)O)[C@@H](C)CC
notes: C-terminus of SAPAP3; the last ten residues of the human 20-mer aa 960-979; also called SAPAP3 C-tail peptide AQTRL-COOH; source: synthetic peptide (GenScript)
- binding result [2]: binds
- koff [3]: 0.00923 s⁻¹
- koff [4]: 0.000383 s⁻¹
- Kd [5]: 600 nM
- Kd [6]: 260 nM

Further lines, results first:

- binding result [2]: binds
- koff [3]: 0.00193 s⁻¹
- koff [4]: 0.000542 s⁻¹
- Kd [5]: 1280 nM
- Kd [6]: 450 nM
B1: CXCR2 C-terminal peptide, biotin-Ahx-VGSSSGHTSTTL-carboxylic acid (peptide)
peptide: {Biotin-Ahx}-VGSSSGHTSTTL-OH
SMILES: CC(C)C[C@H](NC(=O)[C@@H](NC(=O)[C@@H](NC(=O)[C@H](CO)NC(=O)[C@@H](NC(=O)[C@H](Cc1c[nH]cn1)NC(=O)CNC(=O)[C@H](CO)NC(=O)[C@H](CO)NC(=O)[C@H](CO)NC(=O)CNC(=O)[C@@H](NC(=O)CCCCCNC(=O)CCCC[C@@H]1SC[C@@H]2NC(=O)N[C@@H]21)C(C)C)[C@@H](C)O)[C@@H](C)O)[C@@H](C)O)C(=O)O
notes: C-terminus of CXCR2; also called CXCR2 C-tail peptide TSTTL-COOH; CXCR2 TSTTL-COOH biosensor; source: synthetic peptide (GenScript)

- binding result [2]: binds
B3: MEK2 C-terminal peptide, biotin-Ahx-RTLRLKQPSTPTRTAV-carboxylic acid (peptide)
peptide: {Biotin-Ahx}-RTLRLKQPSTPTRTAV-OH
SMILES: CC(C)C[C@H](NC(=O)[C@H](CCCNC(=N)N)NC(=O)[C@H](CC(C)C)NC(=O)[C@@H](NC(=O)[C@H](CCCNC(=N)N)NC(=O)CCCCCNC(=O)CCCC[C@@H]1SC[C@@H]2NC(=O)N[C@@H]21)[C@@H](C)O)C(=O)N[C@@H](CCCCN)C(=O)N[C@@H](CCC(N)=O)C(=O)N1CCC[C@H]1C(=O)N[C@@H](CO)C(=O)N[C@H](C(=O)N1CCC[C@H]1C(=O)N[C@H](C(=O)N[C@@H](CCCNC(=N)N)C(=O)N[C@H](C(=O)N[C@@H](C)C(=O)N[C@H](C(=O)O)C(C)C)[C@@H](C)O)[C@@H](C)O)[C@@H](C)O
notes: C-terminus of MEK2; also called MEK2 C-tail; TRTAV-COOH of MEK2; source: synthetic peptide (GenScript)
